Results published in PMC7949109, “Trans-2-enoyl-CoA reductase limits Ca^2+ accumulation in the endoplasmic reticulum by inhibiting the Ca^2+ pump SERCA2b” (The Journal of Biological Chemistry, 2021).

Target: T1, PA-SERCA2b (recombinant SERCA2b with an N-terminal PA-tag) (human, UniProt P16615-1 1-1042)
T1 construct: human SERCA2b; cDNA in the pFastBac1 vector; source: Sf21 cells (baculovirus), solubilised with DDM, purified on anti-PA-tag NZ-1 Sepharose, eluted with PA-tag peptide; not shown: PA-tag, N-terminal, kept
T1 sequence (P16615 whole entry): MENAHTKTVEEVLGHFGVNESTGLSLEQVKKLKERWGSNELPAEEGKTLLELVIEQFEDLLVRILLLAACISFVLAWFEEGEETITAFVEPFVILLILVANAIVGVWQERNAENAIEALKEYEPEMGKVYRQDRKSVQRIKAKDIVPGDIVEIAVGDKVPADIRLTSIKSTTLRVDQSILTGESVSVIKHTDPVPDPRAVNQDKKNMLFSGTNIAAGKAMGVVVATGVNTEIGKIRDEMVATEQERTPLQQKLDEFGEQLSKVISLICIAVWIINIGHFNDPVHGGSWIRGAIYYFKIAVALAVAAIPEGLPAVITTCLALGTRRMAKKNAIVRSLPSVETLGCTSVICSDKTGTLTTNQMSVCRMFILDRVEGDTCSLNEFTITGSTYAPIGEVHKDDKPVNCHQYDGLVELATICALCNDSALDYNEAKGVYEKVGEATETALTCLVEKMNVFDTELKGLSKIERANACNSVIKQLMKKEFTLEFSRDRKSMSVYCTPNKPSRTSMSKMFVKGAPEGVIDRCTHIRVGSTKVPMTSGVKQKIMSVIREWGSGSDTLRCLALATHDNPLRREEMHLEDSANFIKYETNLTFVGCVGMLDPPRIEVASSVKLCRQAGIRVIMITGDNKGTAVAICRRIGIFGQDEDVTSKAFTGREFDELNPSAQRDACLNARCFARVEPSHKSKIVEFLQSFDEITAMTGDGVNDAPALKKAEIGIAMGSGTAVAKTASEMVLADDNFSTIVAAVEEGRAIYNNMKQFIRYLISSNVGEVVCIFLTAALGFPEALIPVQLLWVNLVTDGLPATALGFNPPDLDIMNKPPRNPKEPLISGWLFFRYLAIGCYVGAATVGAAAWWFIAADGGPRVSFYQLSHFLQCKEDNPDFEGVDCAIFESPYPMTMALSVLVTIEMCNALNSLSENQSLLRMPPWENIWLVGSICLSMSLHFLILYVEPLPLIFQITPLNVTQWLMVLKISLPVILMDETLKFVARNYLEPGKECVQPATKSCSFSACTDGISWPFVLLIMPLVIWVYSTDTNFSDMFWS
Assay: pull-down; PA-SERCA2b (50 pmol) incubated with FLAG–TER (125 pmol) immobilised on anti-FLAG mAb resin, or resin alone, 4 °C 2 h; buffer H (50 mM Hepes–NaOH pH 7.0, 100 mM NaCl, 1 mM MgCl2, 5 mM EGTA, 1% DDM, 20% glycerol) with or without 100 nM free Ca2+; CBB staining; also 0.25 uM PA-SERCA2b pretreated with 2.5 uM thapsigargin (less pulled down)
Conditions: both partners purified

B1: FLAG–TER (recombinant TER with an N-terminal FLAG-tag), from insect cells (enzyme, human, UniProt Q9NZ01 1-308, looked up)
chain: MKHYEVEILDAKTREKLCFLDKVEPHATIAEIKNLFTKTHPQWYPARQSLRLDPKGKSLKDEDVLQKLPVGTTATLYFRDLGAQISWVTVFLTEYAGPLFIYLLFYFRVPFIYGHKYDFTSSRHTVVHLACICHSFHYIKRLLETLFVHRFSHGTMPLRNIFKNCTYYWGFAAWMAYYINHPLYTPPTYGAQQVKLALAIFVICQLGNFSIHMALRDLRPAGSKTRKIPYPTKNPFTWLFLLVSCPNYTYEVGSWIGFAIMTQCLPVALFSLVGFTQMTIWAKGKHRSYLKEFRDYPPLRMPIIPFLL
notes: human trans-2-enoyl-CoA reductase (TER); cDNA in the pFastBacFLAGa vector; not shown: FLAG, N-terminal, kept
B1: binds.
